Data taken from the supplement of paper PMC10567573.

B1: FBF1 (parent)
chain: FGDSPKAEKRQIGDQEGPRPARST
B2: APBB1IP (parent)
chain: SQVSMWDQRWQDHQPLLPITDVP
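Also: lentivirally expressed fusions sorted by FACS into six bins by GFP to DsRed ratio, PSI derived from sequencing read proportions per bin multiplied by bin number.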

Variants of: B1
Assay: protein stability index of a GFP-peptide fusion (GPS, HEK-293T) (PSI 1-6); higher = more stable
Details: c terminus: a fixed tail appended
Work on G2R yielded a protein stability index of 5.98. For G2Y, the protein stability index was 5.18. For G2D, the protein stability index was 4.94. Work on G2M yielded a protein stability index of 4.96. In the case of G2H, the protein stability index is reported as 4.58. Variant G2I has a protein stability index of 3.83. In the case of T24R, the protein stability index is reported as 4.68. T24F gave a protein stability index of 4.83. Variant T24I has a protein stability index of 4.45. T24P showed a protein stability index of 5.25. T24Q gave a protein stability index of 5.62. Variant A7V has a protein stability index of 3.47. A7K showed a protein stability index of 5.31. A7G gave a protein stability index of 4.89. A7E showed a protein stability index of 5.89. For P20F, the protein stability index was 4.57. P20S showed a protein stability index of 5.02. In the case of P20N, the protein stability index is reported as 4.89. Work on P20H yielded a protein stability index of 4.95. With P20K the protein stability index was 4.72. Variant P18R has a protein stability index of 4.78. P18H showed a protein stability index of 4.77. Variant P18V has a protein stability index of 4.96. Work on P18I yielded a protein stability index of 4.17. Work on P18Y yielded a protein stability index of 4.5. P18T showed a protein stability index of 4.69. In the case of P18N, the protein stability index is reported as 4.15. For A21I, the protein stability index was 4.77. Variant A21N has a protein stability index of 5.34. In the case of A21F, the protein stability index is reported as 4.52. With A21Y the protein stability index was 4.86. For A21T, the protein stability index was 5.9. For K6D, the protein stability index was 5.22. Work on K6V yielded a protein stability index of 4.24. Variant K6I has a protein stability index of 4.78. With K6L the protein stability index was 4.84. K6A showed a protein stability index of 5.55. With K6P the protein stability index was 4.89. K6N showed a protein stability index of 5.08. E8R gave a protein stability index of 4.43. Variant E8C has a protein stability index of 4.11. Work on E8A yielded a protein stability index of 4.84. For E8P, the protein stability index was 4.97. E8Y gave a protein stability index of 3.39. E8F showed a protein stability index of 3.27. I12M gave a protein stability index of 5.04. For I12G, the protein stability index was 5.03. With I12N the protein stability index was 5.5. Variant E16Y has a protein stability index of 4.14. In the case of E16S, the protein stability index is reported as 5.27. Work on E16N yielded a protein stability index of 4.98. E16V showed a protein stability index of 4.99. E16Q gave a protein stability index of 5.19. For E16I, the protein stability index was 4.83. Variant E16K has a protein stability index of 4.81. Work on E16R yielded a protein stability index of 5.02. For E16C, the protein stability index was 4.79. For R10A, the protein stability index was 5.42. With R10S the protein stability index was 5.44. For R10Q, the protein stability index was 4.86. Variant R10N has a protein stability index of 5.42. R10M showed a protein stability index of 5.06. Work on R10K yielded a protein stability index of 4.76. Variant G17T has a protein stability index of 4.67. G17V gave a protein stability index of 4.42. In the case of G17Q, the protein stability index is reported as 5.15. Work on G17C yielded a protein stability index of 4.94. G17P gave a protein stability index of 5.54. Variant G17Y has a protein stability index of 4.68. In the case of G17I, the protein stability index is reported as 4.34. G17W gave a protein stability index of 4.17. G17A showed a protein stability index of 5.52. Variant G17L has a protein stability index of 4.77. In the case of S23P, the protein stability index is reported as 4.67. Variant S23R has a protein stability index of 4.78. For S23A, the protein stability index was 5.25. S23L showed a protein stability index of 4.98. With S23D the protein stability index was 5.31. For S23N, the protein stability index was 5.5. Variant S23G has a protein stability index of 5.7. In the case of S23C, the protein stability index is reported as 4.66. For Q11H, the protein stability index was 5.16. Variant Q11I has a protein stability index of 4.61. Variant Q11N has a protein stability index of 5.38. In the case of Q11V, the protein stability index is reported as 5.08. Variant Q11D has a protein stability index of 5.29. Variant Q11W has a protein stability index of 3.76. Q11F showed a protein stability index of 3.59. Q11T showed a protein stability index of 5. Q11P gave a protein stability index of 5.25. Variant Q15C has a protein stability index of 4.23. In the case of Q15R, the protein stability index is reported as 4.28. With Q15P the protein stability index was 5.38. With Q15Y the protein stability index was 4.53. With D3E the protein stability index was 5.41. With D3R the protein stability index was 4.97. Work on D3V yielded a protein stability index of 5.55. In the case of D3H, the protein stability index is reported as 4.49. For D3K, the protein stability index was 4.17. D3P gave a protein stability index of 5.14. Variant R19M has a protein stability index of 4.9. Variant R19D has a protein stability index of 5.3. R19L gave a protein stability index of 4.9. R19S gave a protein stability index of 5.4. With R19T the protein stability index was 4.23. With R19C the protein stability index was 5.4. With R19I the protein stability index was 5.08. R19G showed a protein stability index of 5.13. Work on S4M yielded a protein stability index of 4.68. In the case of S4P, the protein stability index is reported as 5.05. S4G gave a protein stability index of 4.96. Variant S4E has a protein stability index of 5.2. Work on S4K yielded a protein stability index of 4.79. In the case of S4Q, the protein stability index is reported as 4.75. S4F showed a protein stability index of 4.75. S4L gave a protein stability index of 5.27. In the case of S4V, the protein stability index is reported as 5.61. Work on S4H yielded a protein stability index of 5.43. In the case of S4A, the protein stability index is reported as 4.3. In the case of S4Y, the protein stability index is reported as 4.31. With D14T the protein stability index was 5. With D14M the protein stability index was 4.1. Work on D14C yielded a protein stability index of 4.7. Variant D14Y has a protein stability index of 4.54. With D14Q the protein stability index was 4.42. In the case of D14F, the protein stability index is reported as 4.65. Work on D14I yielded a protein stability index of 4.38. D14R gave a protein stability index of 4.82. With R22P the protein stability index was 5.64. Work on R22Q yielded a protein stability index of 5.16. With R22I the protein stability index was 5.46. For R22E, the protein stability index was 4.79. R22D showed a protein stability index of 5.27. R22N gave a protein stability index of 5.66. Variant R22S has a protein stability index of 5.4. Work on R22H yielded a protein stability index of 4.97. In the case of K9A, the protein stability index is reported as 4.97. With K9V the protein stability index was 4.89. With K9G the protein stability index was 5.2. With K9N the protein stability index was 5.93. Variant G13W has a protein stability index of 2.74. With G13M the protein stability index was 4.24. G13C showed a protein stability index of 5.04. G13N showed a protein stability index of 5.01. With G13D the protein stability index was 5.53. With G13H the protein stability index was 4.69. In the case of G13P, the protein stability index is reported as 5.16. Work on G13F yielded a protein stability index of 4.71. For G13S, the protein stability index was 4.82. In the case of G13R, the protein stability index is reported as 5.09. P5M showed a protein stability index of 4.88. For P5N, the protein stability index was 5.53. For P5I, the protein stability index was 4.89. P5K gave a protein stability index of 4.43. With P5L the protein stability index was 4.58. For P5F, the protein stability index was 3.64. P5S gave a protein stability index of 4.84. Work on P5T yielded a protein stability index of 5.19. Variant F1T has a protein stability index of 5.76. F1G showed a protein stability index of 5.72. Variant F1R has a protein stability index of 5.67.

Variants of: B2
Assay: as above
Details: c terminus: native
P23W gave a protein stability index of 2.17. Variant P23R has a protein stability index of 4.33. Work on P23T yielded a protein stability index of 2.01. In the case of P23Q, the protein stability index is reported as 1.61. In the case of P23S, the protein stability index is reported as 3.01. With P23Y the protein stability index was 2.74.
